From US20200114017A1 (BIONOMICS, published 2020) come the findings set out here.

Substitutions are numbered along the chain they refer to. Bounds are passed on as bounds.

Experiment [1] has as its target T1, human LGR5 (leucine-rich repeat containing G-protein-coupled receptor 5) (human, UniProt O75473 22-561).
T1 sequence: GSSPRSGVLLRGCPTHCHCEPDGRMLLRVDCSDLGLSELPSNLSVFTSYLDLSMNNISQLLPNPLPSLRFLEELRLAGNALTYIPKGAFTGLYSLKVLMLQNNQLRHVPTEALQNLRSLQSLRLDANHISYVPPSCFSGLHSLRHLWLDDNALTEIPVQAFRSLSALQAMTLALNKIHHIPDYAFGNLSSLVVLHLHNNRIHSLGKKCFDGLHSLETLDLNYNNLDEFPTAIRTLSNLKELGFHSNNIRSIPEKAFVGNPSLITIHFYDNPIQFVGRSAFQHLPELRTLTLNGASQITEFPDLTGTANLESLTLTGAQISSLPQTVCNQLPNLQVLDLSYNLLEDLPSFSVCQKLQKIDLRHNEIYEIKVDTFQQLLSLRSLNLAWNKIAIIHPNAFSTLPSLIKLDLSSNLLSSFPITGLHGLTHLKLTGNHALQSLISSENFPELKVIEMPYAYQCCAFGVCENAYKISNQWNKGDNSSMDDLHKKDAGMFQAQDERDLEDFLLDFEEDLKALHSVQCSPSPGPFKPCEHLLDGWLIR
Description: cell-based or functional assay.

Experiment [2] deals with T1, human LGR5 (leucine-rich repeat …). Description: FACS on CHO cells expressing recombinant LGR5.

B1: 18G7Ch (antibody, human IgG1, kappa, V domains shown)
VH: QVQLQQSGAELVKPGASVKISCKATGYTFSGYWIEWVKQRPGHGLEWIGEILPGSDSTNYNEKFKGKATFTADTSSNTVYMQFSSLTSEDSAVYYCARSGYYGSSQYWGQGTTLTVSS
VL: NIVLTQSPASLAVSLGQRATISCRASESVDSYGNSFMHWYQQKPGQPPKLLIYLTSNLESGVPARFSGSGSRTDFTLTIDPVEADDAATYYCQQNNEDPRTFGGGTKLEIKR
For B1, the “IC50 (nM) of cell viability, MTS assay, primary antibody + secondary ADC (NL-MMAF)” value in experiment [1] was 0.115 nM.

B2: 18G7H6A1 (antibody, human IgG1, kappa, V domains shown)
VH: EVQLVQSGAEVKKPGESLRISCKGSGYSFTAYWIEWVRQAPGKGLEWIGEILPGSDSTNYNEKFKGHVTISADKSISTAYLQWSSLKASDTAVYYCARSGYYGSSQYWGQGTLVTVSS
VL: B1 VL with N1D, L15P, S22T, A64D, R72G, D80N, D85N, N96A
With B2, the EC50 in experiment [2] was below 10 nM.

What is called EC50 is the concentration needed to bring the measured effect to its halfway point.
